Measured values from patent publication US20090099029.

Molecular target: T1, Bovine, dephosphorylated, Myelin Basic Protein (MBP), P02687
T1 chain: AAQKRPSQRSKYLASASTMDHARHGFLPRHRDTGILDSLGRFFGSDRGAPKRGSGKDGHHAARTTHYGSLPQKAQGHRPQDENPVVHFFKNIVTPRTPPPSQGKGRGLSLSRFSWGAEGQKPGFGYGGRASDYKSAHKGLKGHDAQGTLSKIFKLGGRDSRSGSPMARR

Protein	MBP Kinase Activity
MAPK13(p38delta) (protein) MSLIRKKGFYKQDVNKTAWELPKTYVSPTHVGSGAYGSVCSAIDKRSGEKVAIKKLSRPFQSEIFAKRAYRELLLLKHMQHENVIGLLDVFTPASSLRNFYDFYLVMPFMQTDLQKIMGMEFSEEKIQYLVYQMLKGLKYIHSAGVVHRDLKPGNLAVNEDCELKILDFGLARHADAEMTGYVVTRWYRAPEVILSWMHYNQTVDIWSVGCIMAEMLTGKTLFKGKDYLDQLTQILKVTGVPGTEFVQKLNDKAAKSYIQSLPQTPRKDFTQLFPRASPQAADLLEKMLELDVDKRLTAAQALTHPFFEPFRDPEEETEAQQPFDDSLEHEKLTVDEWKQHIYKEIVNFSPIARKDSRRRSGMKL	Weak
MAPK3(ERK1) (protein) MAAAAAQGGGGGEPRRTEGVGPGVPGEVEMVKGQPFDVGPRYTQLQYIGEGAYGMVSSAYDHVRKTRVAIKKISPFEHQTYCQRTLREIQILLRFRHENVIGIRDILRASTLEAMRDVYIVQDLMETDLYKLLKSQQLSNDHICYFLYQILRGLKYIHSANVLHRDLKPSNLLINTTCDLKICDFGLARIADPEHDHTGFLTEYVATRWYRAPEIMLNSKGYTKSIDIWSVGCILAEMLSNRPIFPGKHYLDQLNHILGILGSPSQEDLNCIINMKARNYLQSLPSKTKVAWAKLFPKSDSKALDLLDRMLTFNPNKRITVEEALAHPYLEQYYDPTDEPVAEEPFTFAMELDDLPKERLKELIFQETARFQPGVLEAP	Strong
MAPKAPK3 (protein) MDGETAEEQGGPVPPPVAPGGPGLGGAPGGRREPKKYAVTDDYQLSKQVLGLGVNGKVLECFHRRTGQKCALKLLYDSPKARQEVDHHWQASGGPHIVCILDVYENMHHGKRCLLIIMECMEGGELFSRIQERGDQAFTEREAAEIMRDIGTAIQFLHSHNIAHRDVKPENLLYTSKEKDAVLKLTDFGFAKETTQNALQTPCYTPYYVAPEVLGPEKYDKSCDMWSLGVIMYILLCGFPPFYSNTGQAISPGMKRRIRLGQYGFPNPEWSEVSEDAKQLIRLLLKTDPTERLTITQFMNHPWINQSMVVPQTPLHTARVLQEDKDHWDEVKEEMTSALATMRVDYDQVKIKDLKTSNNRLLNKRRKKQAGSSSASQGCNNQ	Strong
MAPK14(p38alpha) (protein) MSQERPTFYRQELNKTIWEVPERYQNLSPVGSGAYGSVCAAFDTKTGLRVAVKKLSRPFQSIIHAKRTYRELRLLKHMKHENVIGLLDVFTPARSLEEFNDVYLVTHLMGADLNNIVKCQKLTDDHVQFLIYQILRGLKYIHSADIIHRDLKPSNLAVNEDCELKILDFGLARHTDDEMTGYVATRWYRAPEIMLNWMHYNQTVDIWSVGCIMAELLTGRTLFPGTDHINQLQQIMRLTGTPPAYLINRMPSHEARNYIQSLTQMPKMNFANVFIGANPLAVDLLEKMLVLDSDKRITAAQALAHAYFAQYHDPDDEPVADPYDQSFESRDLLIDEWKSLTYDEVISFVPPPLDQEEMES	Strong
MAPK8(JNK1) (protein) MSRSKRDNNFYSVEIGDSTFTVLKRYQNLKPIGSGAQGIVCAAYDAILERNVAIKKLSRPFQNQTHAKRAYRELVLMKCVNHKNIIGLLNVFTPQKSLEEFQDVYIVMELMDANLCQVIQMELDHERMSYLLYQMLCGIKHLHSAGIIHRDLKPSNIVVKSDCTLKILDFGLARTAGTSFMMTPYVVTRYYRAPEVILGMGYKENVDLWSVGCIMGEMVCHKILFPGRDYIDQWNKVIEQLGTPCPEFMKKLQPTVRTYVENRPKYAGYSFEKLFPDVLFPADSEHNKLKASQARDLLSKMLVIDASKRISVDEALQHPYINVWYDPSEAEAPPPKIPDKQLDEREHTIEEWKELIYKEVMDLEERTKNGVIRGQPSPLAQVQQ	Negative
